Test results from patent publication US20240209088A1 (NMI NATURWISSENSCHAFTLICHES UND MEDIZINISCHES INSTITUT AN …, published 2024).
Where a chain is given by its changes, count along the chain named.

T1: murine CD4 on mouse CD4+ cells (mouse, UniProt P06332 27-457)
T1 construct: whole, on cells; also called murine CD4+ lymphocytes
T1 sequence (looked up): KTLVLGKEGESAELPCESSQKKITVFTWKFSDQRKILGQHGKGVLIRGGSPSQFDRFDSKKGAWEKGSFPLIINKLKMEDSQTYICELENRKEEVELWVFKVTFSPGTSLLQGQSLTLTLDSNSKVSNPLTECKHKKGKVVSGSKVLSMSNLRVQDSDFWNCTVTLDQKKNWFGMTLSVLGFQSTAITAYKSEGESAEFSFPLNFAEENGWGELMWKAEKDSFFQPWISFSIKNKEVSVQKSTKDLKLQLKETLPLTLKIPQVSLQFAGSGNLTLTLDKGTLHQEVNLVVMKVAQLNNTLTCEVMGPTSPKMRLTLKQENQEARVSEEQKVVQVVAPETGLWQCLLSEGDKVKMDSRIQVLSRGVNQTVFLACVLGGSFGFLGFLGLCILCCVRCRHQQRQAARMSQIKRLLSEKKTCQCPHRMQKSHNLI

B1: mutant CD4-Nb1 (all lysine residues replaced with arginine residues) (VHH)
VHH: EVQLVESGGGLVQPGGSLRLSCAASGFTFSRLAMSWHREPPGRGREWLADIDSSGDTTDYLASVRGRFTISRDNARNTLYLQMDSLRSEDTGVYYCASREDPPGYWGQGTQVTVSS
notes: Expressed in bacteria; also called mutant nanobody; mutant version of the nanobody
B2: CD4-Nb1 (VHH)
VHH: B1 VHH with R31K, R43K, R65K, R76K, R87K
notes: Unlabeled, expressed in E. coli; also called non-mutated CD4-Nb1
B3: CD4-Nb1 sortase-coupled to the fluorescent dye CF568 (VHH)
VHH: B1 VHH with R31K, R43K, R65K, R76K, R87K
modifications: C-terminus sortase-coupled to the CF568-coupled peptide H-Gly-Gly-Gly-Doa-Lys-NH2 (labeling ratio 1:1)
notes: also called CF568-labeled CD4-Nb1; CD4-Nbs-CF568
B4: CD4-Nb1-Cy5.5 (VHH)
VHH: B1 VHH with R31K, R43K, R65K, R76K, R87K
modifications: C-terminus sortase-coupled to H-Gly-Gly-Gly-propyl-azide, then click-labeled with DBCO-Cy5.5
notes: also called hCD4-Nb1-Cy5.5; Cy5.5-labeled CD4-Nb1
B5: ^64Cu-CD4-Nb1 (VHH)
VHH: B1 VHH with R31K, R43K, R65K, R76K, R87K
modifications: azide-coupled C-terminus reacted with BCN-NODAGA and radiolabeled with 64Cu
notes: also called ^64Cu-hCD4-Nb1
B6: CD4-Nb2 (VHH)
VHH: EVQLVESGGGSVQPGGSLRLSCGASGFDVDYYAIGWFRQAPGKEREGVSCIASSDGSTYYADSVKGRFTISRDNAKNTVYLQMNSLKPEDTAVYYCAADATCPYYCSGSVCYLETGMDYWGEGTLVTVSS
notes: Unlabeled, expressed in E. coli
B7: CD4-Nb4 (VHH)
VHH: EVQLQESGGALAQPGGSLRLSCAVSGFTFGTYGMGWLRQAPGKGREFVAAINWIHGGEIYADSVKGRFTISKDNAKNTLYLQMDSLKPEDTAVYYCAARSGTSLYTGVDEYQYWGQGTQVTVSS
notes: as for B6
B8: CD4-Nb5 (VHH)
VHH: EVQLQESGGGLVQAGGSLRLSCKVSGRTFGTYAMGWFRQAPGKEREFVAVISWIKGNTYVADSVLGRFTISRDNARNWLHLQMYSLKPEDTATYYCAASSTVTLPTTLDPYTYWGQGTPVTVSS
notes: Unlabeled; excluded from further analyses after the live-cell staining
B9: CD4-Nb3 (VHH)
VHH: HVQLVESGGGLVQPGGSLRLSCAVSGFALEYYAIGWFRQAPGKERERVACMSASGGVINYSESVKGRFTISRDNAKNTVYLQMNTLKPEDTAVYYCAAEKAYYGSSWAECYLMMDYWGKGTLVTVSS
notes: as for B6

Legend:
[1] = molecular target: T2, recombinant extracellular portion of human CD4 (domains D1-4) (human, UniProt P01730 26-396, for BLI biotinylated with 3-fold molar excess of biotin-N-hydroxysuccinimide ester; not biotinylated in HDX-MS); experiment: biolayer interferometry on human CD4; the sheet prints Conc: 0.625 - 5 nM, four sensorgrams up to about 0.17 nm
T2 construct: extracellular domain; also called recombinant hCD4; extracellular domain of hCD4

[2] = molecular target: T2, recombinant extracellular portion of …; experiment: BLI
[3] = molecular target: T2, recombinant extracellular portion of …; experiment: biolayer interferometry, biotinylated hCD4 immobilized on streptavidin biosensors
Protocol: (§1) (D) For biolayer interferometry-based affinity measurements, biotinylated hCD4 was immobilized on streptavidin biosensors.
(§2) To determine the binding affinity of purified Nbs to recombinant hCD4, biolayer interferometry (BLItz, ForteBio) was performed. First, CD4 was biotinylated by 3-fold molar excess of biotin-N-hydroxysuccinimide ester. CD4 was then immobilized at single-use high-precision streptavidin biosensors (SAX) according to manufacturer's protocols. […] As a reference run, PBS was used instead of Nb in the association step. […] Recorded sensograms were analyzed using the BLItzPro software and dissociation constants (KD) were calculated based on global fits.

[4] = molecular target: T3, full-length human CD4 on cells (human, UniProt P01730 26-458); experiment: flow cytometry, percentage of positively stained hCD4-expressing cells against Nb concentration; the subscript is redrawn as 56, EC50 by the legend paragraph 99
T3 construct: whole, on cells; Stably expressed (CHO-hCD4, HEK293-hCD4) or endogenous (PBMCs, human CD4+ cells from blood, HPB-ALL, T cell lines); also called hCD4; cell-resident hCD4
Protocol: (§3) (E) EC₅₀ determination by flow cytometry.
(§4) For each staining condition 200,000 cells were incubated with suitable dilution series of CD4 nanobodies at 4° C. for 30 min. Cells were washed two times and for detection Cy5 AffiniPure Goat Anti-Alpaca IgG, VHH domain (Jackson ImmunoResearch) was applied for 15 min. […] Final data analysis was performed via FloJo10® software.

[5] = molecular target: T2, recombinant extracellular portion of …; experiment: BLI (affinity constants predetermined by BLI analysis)
Protocol: as §2

[6] = molecular target: T2, recombinant extracellular portion of …; experiment: biolayer interferometry, biotinylated hCD4 immobilized on streptavidin biosensors, four Nb concentrations; the subscript is redrawn as O, KD by the legend paragraph 99
Protocol: as §1, §2

[7] = molecular target: T3, full-length human CD4 on cells; experiment: flow cytometry on HEK293-hCD4 cells, detection with anti-VHH Cy5 antibody; flow cytometry, full-length hCD4 on HEK293-hCD4 cells
[8] = molecular target: T3, full-length human CD4 on cells; experiment: flow cytometry on cells expressing hCD4
Protocol: as §3, §4

[9] = molecular target: T2, recombinant extracellular portion of …; experiment: BLI, biotinylated extracellular domain of hCD4 on streptavidin sensor, serial dilutions of Nb; BLI on biotinylated extracellular domain of hCD4 at the sensor tip
Protocol: as §2
(§5) To quantitatively assess affinities, biolayer interferometry (BLI) measuring serial dilutions of Nbs were performed on the biotinylated extracellular domain of hCD4 immobilized at the sensor tip.

[10] = molecular target: T4, hCD4 domain-deletion mutant lacking domains D1 and D2 (CD4_ΔD1ΔD2) (human, UniProt P01730 26-458); experiment: live-cell immunofluorescence of CHO cells transiently expressing the domain-deletion mutant, CF568-labeled Nb
T4 construct: whole, on cells; Transiently expressed in CHO wt cells; also called pcDNA3.1_CD4_ΔD1ΔD2_IRES-eGFP

[11] = molecular target: T5, hCD4 domain-deletion mutant lacking domain D1 (CD4_ΔD1) (human, UniProt P01730 26-458); experiment: as above
T5 construct: whole, on cells; Transiently expressed in CHO wt cells; also called pcDNA3.1_CD4_ΔD1_IRES-eGFP

[12] = molecular target: T1, murine CD4 on mouse CD4+ cells; experiment: flow cytometry of mouse CD4+ cells from spleen and lymph nodes
[13] = molecular target: T3, full-length human CD4 on cells; experiment: in vitro radioimmunoassay on HPB-ALL cells (data not shown)
[14] = molecular target: T3, full-length human CD4 on cells; experiment: flow cytometry, percentage of positively stained hCD4-expressing cells against Nb concentration, four-parametric sigmoidal model
[15] = molecular target: T3, full-length human CD4 on cells; experiment: flow cytometry on HEK293-hCD4 cells, detection with anti-VHH Cy5 antibody
Protocol: For each staining condition 200,000 cells were incubated with suitable dilution series of CD4 nanobodies at 4° C. for 30 min. Cells were washed two times and for detection Cy5 AffiniPure Goat Anti-Alpaca IgG, VHH domain (Jackson ImmunoResearch) was applied for 15 min. […] After two washing steps, samples were resuspended in 200 μl FACS buffer and analyzed with a BD FACSMelody Cell Sorter. Final data analysis was performed via FloJo10® software.
In addition, corresponding EC50 values were determined with full-length plasma membrane-located hCD4 on HEK293-hCD4 cells by flow cytometry.

[16] = molecular target: T2, recombinant extracellular portion of …; experiment: biolayer interferometry, biotinylated hCD4 immobilized on streptavidin biosensors; box in the panel prints [CD4_Nb1]: 15.625-125 nM
Protocol: as §2

[17] = molecular target: T2, recombinant extracellular portion of …; experiment: BLI, biotinylated extracellular domain of hCD4 on streptavidin sensor, serial dilutions of Nb
Protocol: as §2, §5

[18] = molecular target: T3, full-length human CD4 on cells; experiment: flow cytometry, percentage of positively stained hCD4-expressing cells against Nb concentration, four-parametric sigmoidal model; the curve rises only to about 3 % at the highest concentration near 10^-4.5 M
[19] = molecular target: T3, full-length human CD4 on cells; experiment: live-cell immunofluorescence of CHO-hCD4 cells, unlabeled Nb detected with anti-VHH Cy5 secondary antibody

Row | Binder | koff [3] [s⁻¹] | kon [3] [M⁻¹ s⁻¹] | Kd [5] [nM] | EC50 [8] [nM] | Kd [17] [nM] | other results
1 | B1 |  |  |  |  |  | Kd [1]: 1 nM; Kd [2]: ~1 nM
2 | B2 | 0.000613 | 121000 | 5.1 | 0.74 |  | EC50 [4]: 0.74 nM; Kd [6]: 5.09 nM; EC50 [7]: ~0.7 nM; Kd [9]: ~5 nM
3 | B3 |  |  |  |  |  | binding result [10]: no binding (tested: not printed on the sheet); binding result [11]: no binding (tested: not printed on the sheet)
4 | B4 |  |  |  |  |  | binding result [12]: no binding
5 | B5 |  |  |  |  |  | fold over the non-specific binding to CD4-negative DHL cells or of the 64Cu-GFP-Nb control [13]: ~30 times
6 | B6 | 0.000795 | 122000 | 6.5 | 0.73 | ~7 | EC50 [14]: 0.73 nM; EC50 [15]: ~0.7 nM; Kd [16]: 6.53 nM
7 | B7 | 0.016 | 118000 |  | 7360 | 135 | EC50 [18]: 7360 nM
8 | B8 |  |  |  |  |  | binding result [19]: no binding (tested: not printed on the sheet)
9 | B9 | 0.00618 | 82000 | 75.3 | 533 | 75 | EC50 [14]: 533 nM
